# From patent US20070111222
# Test system: T1, fluorogenic peptide CAGSGSGPR-AMC (AMC=7-amino-4-methyl-coumarin)
# T1 sequence: CAGSGSGPR
substance,measurement,value
trypsin,release of fluorescent AMC (cleavage of the immobilized fluorogenic peptide),Adding trypsin to these disks results in the release of fluorescent AMC
